{"source": "ChEMBL document CHEMBL1212722", "about": "“Designer enzymes for glycosphingolipid synthesis by directed evolution” (Nat Chem Biol, 2009)", "proteins": {"B1": {"name": "Endoglycoceramidase II (Rhodococcus sp), A0ACD6B832 K129N (protein)", "chain": "MRRTRLVSLIVTGSLVFGGGVAAAQSSLAASGSGSGSGTALTPSYLKDDDGRSLILRGFNTASSAKSAPDGMPQFTEADLAREYADMGTNFVRFLISWRSVEPAPGVYDQQYLDRVEDRVGWYAERGYNVMLDMHQDVYSGAITPEGNSGNGAGAIGNGAPAWATYMDGLPVEPQPRWELYYIQPGVMRAFDNFWNTTGKHPELVEHYAKAWRAVADRFADNDAVVAYDLMNEPFGGSLQGPAFEAGPLAAMYQRTTDAIRQVDQDTWVCVAPQAIGVNQGLPSGLTKIDDPRAGQQRIAYCPHLYPLPLDIGDGHEGLARTLTDVTIDAWRANTAHTARVLGDVPIILGEFGLDTTLPGARDYIERVYGTAREMGAGVSYWSSDPGPWGPYLPDGTQTLLVDTLNKPYPRAVAGTPTEWSSTSDRLQLTIEPDAAITAPTEIYLPEAGFPGDVHVEGADVVGWDRQSRLLTVRTPADSGNVTVTVTPAA"}, "B2": {"name": "Endoglycoceramidase II (Rhodococcus sp), A0ACD6B832 D314Y (protein)", "chain": "B1 chain with N129K, D314Y"}, "B3": {"name": "Endoglycoceramidase II (Rhodococcus sp), A0ACD6B832 I183F (protein)", "chain": "B1 chain with N129K, I183F"}, "B4": {"name": "Endoglycoceramidase II (Rhodococcus sp), A0ACD6B832 A81E (protein)", "chain": "B1 chain with A81E, N129K"}, "B5": {"name": "Endoglycoceramidase II (Rhodococcus sp), A0ACD6B832 P394S (protein)", "chain": "B1 chain with N129K, P394S"}}, "key": {"[1]": {"substrate": "CCCCCCCCCCCCCC[C@@H](O)[C@@H](O)[C@@H](N)CO", "assay": "Ratio of Kcat to Km of Activity of Rhodococcus sp. M777 Endoglycoceramidase 2 K129N mutant"}, "[2]": {"substrate": "CCCCCCCCCCCCC/C=C/[C@@H](O)[C@@H](N)CO", "assay": "(§1) Activity of Rhodococcus sp. M777 Endoglycoceramidase 2 D314Y mutant"}, "[3]": {"substrate": "CC(=O)N[C@H]1[C@H](O[C@@H]2[C@H](O[C@]3(C(=O)O)C[C@H](O)[C@@H](NC(C)=O)[C@H]([C@@H](O)[C@@H](O)CO)O3)[C@@H](O)[C@H](O[C@H]3[C@H](O)[C@@H](O)[C@@H](F)O[C@@H]3CO)O[C@@H]2CO)O[C@H](CO)[C@H](O)[C@@H]1O[C@@H]1O[C@H](CO)[C@H](O)[C@H](O)[C@H]1O", "assay": "as §1"}, "[4]": {"substrate": "CCCCCCCCCCCCC/C=C/[C@@H](O)[C@@H](N)CO", "assay": "(§2) Ratio of Kcat to Km of Activity of Rhodococcus sp. M777 Endoglycoceramidase 2 D314Y mutant"}, "[5]": {"substrate": "CC(=O)N[C@H]1[C@H](O[C@@H]2[C@H](O[C@]3(C(=O)O)C[C@H](O)[C@@H](NC(C)=O)[C@H]([C@@H](O)[C@@H](O)CO)O3)[C@@H](O)[C@H](O[C@H]3[C@H](O)[C@@H](O)[C@@H](F)O[C@@H]3CO)O[C@@H]2CO)O[C@H](CO)[C@H](O)[C@@H]1O[C@@H]1O[C@H](CO)[C@H](O)[C@H](O)[C@H]1O", "assay": "as §2"}, "[6]": {"substrate": "CCCCCCCCCCCCC/C=C/[C@@H](O)[C@@H](N)CO", "assay": "(§3) Activity of Rhodococcus sp. M777 Endoglycoceramidase 2 I183F mutant"}, "[7]": {"substrate": "CC(=O)N[C@H]1[C@H](O[C@@H]2[C@H](O[C@]3(C(=O)O)C[C@H](O)[C@@H](NC(C)=O)[C@H]([C@@H](O)[C@@H](O)CO)O3)[C@@H](O)[C@H](O[C@H]3[C@H](O)[C@@H](O)[C@@H](F)O[C@@H]3CO)O[C@@H]2CO)O[C@H](CO)[C@H](O)[C@@H]1O[C@@H]1O[C@H](CO)[C@H](O)[C@H](O)[C@H]1O", "assay": "as §3"}, "[8]": {"substrate": "CCCCCCCCCCCCC/C=C/[C@@H](O)[C@@H](N)CO", "assay": "(§4) Ratio of Kcat to Km of Activity of Rhodococcus sp. M777 Endoglycoceramidase 2 I183F mutant"}, "[9]": {"substrate": "CC(=O)N[C@H]1[C@H](O[C@@H]2[C@H](O[C@]3(C(=O)O)C[C@H](O)[C@@H](NC(C)=O)[C@H]([C@@H](O)[C@@H](O)CO)O3)[C@@H](O)[C@H](O[C@H]3[C@H](O)[C@@H](O)[C@@H](F)O[C@@H]3CO)O[C@@H]2CO)O[C@H](CO)[C@H](O)[C@@H]1O[C@@H]1O[C@H](CO)[C@H](O)[C@H](O)[C@H]1O", "assay": "as §4"}, "[10]": {"substrate": "CCCCCCCCCCCCC/C=C/[C@@H](O)[C@@H](N)CO", "assay": "(§5) Ratio of Kcat to Km of Activity of Rhodococcus sp. M777 Endoglycoceramidase 2 A81E mutant"}, "[11]": {"substrate": "CC(=O)N[C@H]1[C@H](O[C@@H]2[C@H](O[C@]3(C(=O)O)C[C@H](O)[C@@H](NC(C)=O)[C@H]([C@@H](O)[C@@H](O)CO)O3)[C@@H](O)[C@H](O[C@H]3[C@H](O)[C@@H](O)[C@@H](F)O[C@@H]3CO)O[C@@H]2CO)O[C@H](CO)[C@H](O)[C@@H]1O[C@@H]1O[C@H](CO)[C@H](O)[C@H](O)[C@H]1O", "assay": "as §5"}, "[12]": {"substrate": "CCCCCCCCCCCCC/C=C/[C@@H](O)[C@@H](N)CO", "assay": "(§6) Activity of Rhodococcus sp. M777 Endoglycoceramidase 2 A81E mutant"}, "[13]": {"substrate": "CC(=O)N[C@H]1[C@H](O[C@@H]2[C@H](O[C@]3(C(=O)O)C[C@H](O)[C@@H](NC(C)=O)[C@H]([C@@H](O)[C@@H](O)CO)O3)[C@@H](O)[C@H](O[C@H]3[C@H](O)[C@@H](O)[C@@H](F)O[C@@H]3CO)O[C@@H]2CO)O[C@H](CO)[C@H](O)[C@@H]1O[C@@H]1O[C@H](CO)[C@H](O)[C@H](O)[C@H]1O", "assay": "as §6"}, "[14]": {"substrate": "CCCCCCCCCCCCC/C=C/[C@@H](O)[C@@H](N)CO", "assay": "(§7) Ratio of Kcat to Km of Activity of Rhodococcus sp. M777 Endoglycoceramidase 2 P394S mutant"}, "[15]": {"substrate": "CC(=O)N[C@H]1[C@H](O[C@@H]2[C@H](O[C@]3(C(=O)O)C[C@H](O)[C@@H](NC(C)=O)[C@H]([C@@H](O)[C@@H](O)CO)O3)[C@@H](O)[C@H](O[C@H]3[C@H](O)[C@@H](O)[C@@H](F)O[C@@H]3CO)O[C@@H]2CO)O[C@H](CO)[C@H](O)[C@@H]1O[C@@H]1O[C@H](CO)[C@H](O)[C@H](O)[C@H]1O", "assay": "as §7"}, "[16]": {"substrate": "CCCCCCCCCCCCC/C=C/[C@@H](O)[C@@H](N)CO", "assay": "(§8) Activity of Rhodococcus sp. M777 Endoglycoceramidase 2 P394S mutant"}, "[17]": {"substrate": "CC(=O)N[C@H]1[C@H](O[C@@H]2[C@H](O[C@]3(C(=O)O)C[C@H](O)[C@@H](NC(C)=O)[C@H]([C@@H](O)[C@@H](O)CO)O3)[C@@H](O)[C@H](O[C@H]3[C@H](O)[C@@H](O)[C@@H](F)O[C@@H]3CO)O[C@@H]2CO)O[C@H](CO)[C@H](O)[C@@H]1O[C@@H]1O[C@H](CO)[C@H](O)[C@H](O)[C@H]1O", "assay": "as §8"}}, "note": "Residue numbers refer to the chain shown, from its start. Names and notes keep the numbering of the source.", "data": [{"protein": "B1", "values": [{"measurement": "kcat/Km", "setting": "[1]", "value": 3.1, "unit": "M⁻¹ s⁻¹"}]}, {"protein": "B2", "values": [{"measurement": "Km", "setting": "[2]", "value": 1600, "unit": "µM"}, {"measurement": "kcat", "setting": "[2]", "value": 0.7, "unit": "s⁻¹"}, {"measurement": "Km", "setting": "[3]", "value": 580, "unit": "µM"}, {"measurement": "kcat", "setting": "[3]", "value": 0.49, "unit": "s⁻¹"}, {"measurement": "kcat/Km", "setting": "[4]", "value": 443, "unit": "M⁻¹ s⁻¹"}, {"measurement": "kcat/Km", "setting": "[5]", "value": 845, "unit": "M⁻¹ s⁻¹"}]}, {"protein": "B3", "values": [{"measurement": "Km", "setting": "[6]", "value": 180, "unit": "µM"}, {"measurement": "kcat", "setting": "[6]", "value": 0.09, "unit": "s⁻¹"}, {"measurement": "Km", "setting": "[7]", "value": 180, "unit": "µM"}, {"measurement": "kcat", "setting": "[7]", "value": 0.02, "unit": "s⁻¹"}, {"measurement": "kcat/Km", "setting": "[8]", "value": 527, "unit": "M⁻¹ s⁻¹"}, {"measurement": "kcat/Km", "setting": "[9]", "value": 135, "unit": "M⁻¹ s⁻¹"}]}, {"protein": "B4", "values": [{"measurement": "kcat/Km", "setting": "[10]", "value": 600, "unit": "M⁻¹ s⁻¹"}, {"measurement": "kcat/Km", "setting": "[11]", "value": 123, "unit": "M⁻¹ s⁻¹"}, {"measurement": "Km", "setting": "[12]", "value": 200, "unit": "µM"}, {"measurement": "kcat", "setting": "[12]", "value": 0.12, "unit": "s⁻¹"}, {"measurement": "Km", "setting": "[13]", "value": 970, "unit": "µM"}, {"measurement": "kcat", "setting": "[13]", "value": 0.12, "unit": "s⁻¹"}]}, {"protein": "B5", "values": [{"measurement": "kcat/Km", "setting": "[14]", "value": 660, "unit": "M⁻¹ s⁻¹"}, {"measurement": "kcat/Km", "setting": "[15]", "value": 319, "unit": "M⁻¹ s⁻¹"}, {"measurement": "Km", "setting": "[16]", "value": 500, "unit": "µM"}, {"measurement": "kcat", "setting": "[16]", "value": 0.33, "unit": "s⁻¹"}, {"measurement": "Km", "setting": "[17]", "value": 690, "unit": "µM"}, {"measurement": "kcat", "setting": "[17]", "value": 0.22, "unit": "s⁻¹"}]}]}
